Test results published in PMC10397247.

What was measured:
Experiment in all cases: two-hybrid library CCmax;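 further: natural log of median RNA to DNA barcode read ratio; higher means stronger binding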
[1] = biological target: T1, 4H993-AA; settings: mean of both orientations
T1 chain: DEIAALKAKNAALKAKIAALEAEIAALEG

[2] = biological target: T2, 4H3844-AA; settings: mean of both orientations
T2 chain: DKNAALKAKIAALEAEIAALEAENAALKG

[3] = biological target: T3, 4H2642-AA; settings: mean of both orientations
T3 chain: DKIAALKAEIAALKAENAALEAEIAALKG

[4] = biological target: T4, 4H48-AA; settings: mean of both orientations
T4 chain: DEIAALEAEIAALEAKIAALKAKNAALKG

[5] = biological target: T5, 4H429-AA; settings: mean of both orientations
T5 chain: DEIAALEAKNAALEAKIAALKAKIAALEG

[6] = biological target: T6, 4H566-AA; settings: mean of both orientations
T6 chain: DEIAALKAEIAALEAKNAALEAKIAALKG

[7] = biological target: T7, 4H2505-AA; settings: mean of both orientations
T7 chain: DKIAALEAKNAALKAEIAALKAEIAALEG

[8] = biological target: T8, 4H2754-AA; settings: mean of both orientations
T8 chain: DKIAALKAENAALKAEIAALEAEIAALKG

[9] = biological target: T9, 4H1552-AA; settings: mean of both orientations
T9 chain: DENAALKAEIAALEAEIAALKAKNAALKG

[10] = biological target: T10, 4H3655-AA; settings: mean of both orientations
T10 chain: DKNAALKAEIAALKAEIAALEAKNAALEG

[11] = biological target: T11, 4H1324-AA; settings: mean of both orientations
T11 chain: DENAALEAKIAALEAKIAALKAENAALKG

[12] = biological target: T12, 4H3343-AA; settings: mean of both orientations
T12 chain: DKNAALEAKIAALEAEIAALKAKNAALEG

[13] = biological target: T13, 4H3427-AA; settings: mean of both orientations
T13 chain: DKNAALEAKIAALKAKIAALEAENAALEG

[14] = biological target: T14, 4H717-AA; settings: mean of both orientations
T14 chain: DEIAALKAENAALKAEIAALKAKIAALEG

[15] = biological target: T15, 4H2949-AA; settings: mean of both orientations
T15 chain: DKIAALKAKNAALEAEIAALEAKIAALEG

[16] = biological target: T16, 4H2944-AA; settings: mean of both orientations
T16 chain: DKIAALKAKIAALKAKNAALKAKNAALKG

[17] = biological target: T17, 4H2883-AA; settings: mean of both orientations
T17 chain: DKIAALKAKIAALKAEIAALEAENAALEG

[18] = biological target: T18, 4H1153-AA; settings: mean of both orientations
T18 chain: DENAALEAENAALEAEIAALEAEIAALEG

[19] = biological target: T19, 4H906-AA; settings: mean of both orientations
T19 chain: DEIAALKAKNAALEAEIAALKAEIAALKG

[20] = biological target: T20, 4H881-AA; settings: mean of both orientations
T20 chain: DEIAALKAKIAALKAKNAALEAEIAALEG

[21] = biological target: T21, 4H605-AA; settings: mean of both orientations
T21 chain: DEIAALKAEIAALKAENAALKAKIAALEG

[22] = biological target: T22, 4H2466-AA; settings: mean of both orientations
T22 chain: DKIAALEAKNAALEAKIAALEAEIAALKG

[23] = biological target: T23, 4H780-AA; settings: mean of both orientations
T23 chain: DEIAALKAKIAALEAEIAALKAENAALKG

[24] = biological target: T24, 4H1401-AA; settings: mean of both orientations
T24 chain: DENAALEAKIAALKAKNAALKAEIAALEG

[25] = biological target: T25, 4H3921-AA; settings: mean of both orientations
T25 chain: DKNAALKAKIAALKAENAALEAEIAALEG

[26] = biological target: T26, 4H122-AA; settings: mean of both orientations
T26 chain: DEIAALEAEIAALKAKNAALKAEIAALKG

[27] = biological target: T27, 4H2617-AA; settings: mean of both orientations
T27 chain: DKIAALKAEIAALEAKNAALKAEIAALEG

[28] = biological target: T28, 4H1352-AA; settings: mean of both orientations
T28 chain: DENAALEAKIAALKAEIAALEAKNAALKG

[29] = biological target: T29, 4H3627-AA; settings: mean of both orientations
T29 chain: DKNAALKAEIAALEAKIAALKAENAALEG

[30] = biological target: T30, 4H678-AA; settings: mean of both orientations
T30 chain: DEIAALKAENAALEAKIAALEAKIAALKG

[31] = biological target: T31, 4H1636-AA; settings: mean of both orientations
T31 chain: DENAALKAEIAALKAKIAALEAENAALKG

[32] = biological target: T32, 4H2837-AA; settings: mean of both orientations
T32 chain: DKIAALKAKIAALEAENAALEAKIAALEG

[33] = biological target: T33, 4H2151-AA; settings: mean of both orientations
T33 chain: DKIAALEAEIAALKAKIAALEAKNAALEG

[34] = biological target: T34, 4H234-AA; settings: mean of both orientations
T34 chain: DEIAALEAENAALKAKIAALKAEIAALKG

[35] = biological target: T35, 4H2277-AA; settings: mean of both orientations
T35 chain: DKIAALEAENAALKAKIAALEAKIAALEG

[36] = biological target: T36, 4H2575-AA; settings: mean of both orientations
T36 chain: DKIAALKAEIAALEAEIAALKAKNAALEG

[37] = biological target: T37, 4H335-AA; settings: mean of both orientations
T37 chain: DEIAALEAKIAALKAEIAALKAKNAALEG

[38] = biological target: T38, 4H1135-AA
T38 chain: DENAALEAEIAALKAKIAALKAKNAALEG

[39] = biological target: T39, 4H2165-AA; settings: mean of both orientations
T39 chain: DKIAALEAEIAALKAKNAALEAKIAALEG

[40] = biological target: T40, 4H2729-AA; settings: mean of both orientations
T40 chain: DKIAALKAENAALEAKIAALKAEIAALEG

[41] = biological target: T41, 4H342-AA; settings: mean of both orientations
T41 chain: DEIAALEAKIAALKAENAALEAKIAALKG

[42] = biological target: T42, 4H2393-AA; settings: mean of both orientations
T42 chain: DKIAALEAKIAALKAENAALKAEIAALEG

[43] = biological target: T43, 4H317-AA; settings: mean of both orientations
T43 chain: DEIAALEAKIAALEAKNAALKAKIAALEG

[44] = biological target: T44, 4H3606-AA; settings: mean of both orientations
T44 chain: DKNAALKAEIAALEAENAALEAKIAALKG

[45] = biological target: T45, 4H2354-AA; settings: mean of both orientations
T45 chain: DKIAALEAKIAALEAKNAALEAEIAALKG

[46] = biological target: T46, 4H2078-AA; settings: mean of both orientations
T46 chain: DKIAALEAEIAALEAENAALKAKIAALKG

[47] = biological target: T47, 4H1867-AA; settings: mean of both orientations
T47 chain: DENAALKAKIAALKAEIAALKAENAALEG

[48] = biological target: T48, 4H454-AA; settings: mean of both orientations
T48 chain: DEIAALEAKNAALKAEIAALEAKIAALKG

[49] = biological target: T49, 4H794-AA; settings: mean of both orientations
T49 chain: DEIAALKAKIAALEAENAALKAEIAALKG

[50] = biological target: T50, 4H2190-AA; settings: mean of both orientations
T50 chain: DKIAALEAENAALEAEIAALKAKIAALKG

[51] = biological target: T51, 4H3112-AA; settings: mean of both orientations
T51 chain: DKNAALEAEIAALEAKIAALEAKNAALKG

DENAALEAEIAALKAKIAALKAKNAALEG [4H1135-AA]
interaction score [1]: 0.00688 | interaction score [2]: 0.92 | interaction score [3]: -1.3 | interaction score [4]: 0.894 | interaction score [5]: -1.27 | interaction score [6]: -0.252 | interaction score [7]: 1.53 | interaction score [8]: -0.686 | interaction score [9]: 0.834 | interaction score [10]: 1.88 | interaction score [11]: -1.33 | interaction score [12]: -0.943 | interaction score [13]: -1.05 | interaction score [14]: -1.4 | interaction score [15]: -1.21 | interaction score [16]: -1.57 | interaction score [17]: 1.22 | interaction score [18]: -0.461 | interaction score [19]: -1.37 | interaction score [20]: -1.61 | interaction score [21]: -1.37 | interaction score [22]: -1.49 | interaction score [23]: -1.44 | interaction score [24]: -1.46 | interaction score [25]: -0.897 | interaction score [26]: -1.24 | interaction score [27]: -0.407 | interaction score [28]: 0.703 | interaction score [29]: 0.0922 | interaction score [30]: -0.965 | interaction score [31]: -0.92 | interaction score [32]: -0.865 | interaction score [33]: -0.817 | interaction score [34]: -1.27 | interaction score [35]: -1.81 | interaction score [36]: 0.484 | interaction score [37]: -0.173 | interaction score [38]: -0.919 | interaction score [39]: -1.42 | interaction score [40]: -0.655 | interaction score [41]: -1.17 | interaction score [42]: -1.45 | interaction score [43]: -0.38 | interaction score [44]: 0.227 | interaction score [45]: -1.64 | interaction score [46]: -1.19 | interaction score [47]: 0.0539 | interaction score [48]: -0.222 | interaction score [49]: -1.61 | interaction score [50]: -1.27 | interaction score [51]: 1.57
